In the supplement of paper PMC12764529:
± gives the half width of the 95% confidence interval.

Legend:
[1] = folding stability dG unfold from chymotrypsin proteolysis; higher = more stable
Outline: (§1)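 Mini-proteins designed to be under 80 residues and free of cysteine were carried in a PA-tagged cDNA display construct and digested with trypsin and with chymotrypsin. Each protease was applied at 11 threefold-diluted concentrations, alongside a no-protease condition, before sequencing. K50 came from Bayesian fitting of the sequencing counts, and unfolding free energy was obtained by comparing it with a sequence-predicted unfolded-state K50 and a shared folded-state K50, for each protease separately or for both together. Designs were retained only if their AlphaFold2 dimer inter-PAE exceeded 15.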

[2] = folding stability dG unfold from trypsin proteolysis; higher = more stable
Outline: as §1

[3] = folding stability dG unfold (combined trypsin and chymotrypsin); higher = more stable
Outline: as §1

Sequence | folding stability dG unfold [1] | folding stability dG unfold [2] | folding stability dG unfold [3]
SAPPYYIVIKFKMELPPPTPEDAKEYDPDGEVRRTTVEMTFVIPIPPEDLEDLKDFMQSLGIEEIEIFKSAG [r14_509_TrROS] | 2.75 ± 0.032 kcal/mol | 2.05 ± 0.087 kcal/mol | 2.56 ± 0.15 kcal/mol
SAPQIVEVKEYDPVSKTYTILAETPEGPLTVPVPAGGDTTVEEAIEQVKEYFEKTLPPGVELEIEKILLSAG [r14_422_JUSTAS] | 0.271 ± 0.14 kcal/mol | 0.355 ± 0.08 kcal/mol | 0.418 ± 0.093 kcal/mol
SAPWRITDIDVKRHPNGRVRVTIRFPHPNMSVEIWLDKDGELDVEVSPDMRNHPPWFQNMIRDVAKELLSAG [r14_555_TrROS] | 1.33 ± 0.11 kcal/mol | 2.77 ± 0.1 kcal/mol | 2.15 ± 0.1 kcal/mol
SARIRIMVPPDFIMVRTPKGKMRMVDDPEEIEEIIKDILPVPIEIEPLPPNSPKFQKMMEMMMREQNGPSAG [r14_235_TrROS] | 0.158 ± 0.23 kcal/mol | -0.264 ± 0.48 kcal/mol | 0.0355 ± 0.18 kcal/mol
SASFTLTPVTVTLSPDPETGAILAPVLATAGDHPVFGLAYVDPLDPSRAYYRIYYPPSDLVEYAVVPLPSAG [r14_178_TrMRF] | 0.847 ± 0.15 kcal/mol | 0.469 ± 0.066 kcal/mol | 0.722 ± 0.097 kcal/mol
SASLEELLAELPFDAEVETKDEEVVVKITNPENPDPNVSYTFNIPSSSGVPITVNVTEVEGGTKSVKALSAG [r14_401_JUSTAS] | -0.108 ± 0.24 kcal/mol | -0.448 ± 0.15 kcal/mol | -0.172 ± 0.21 kcal/mol
SASMEAALAKVEEITAEPSWELVGVSPEGVFTIRNPETGTEIVIEIKVTSDGKGYKVTIPSKTVVPAPESAG [r14_20_JUSTAS] | 1.3 ± 0.13 kcal/mol | 1.45 ± 0.096 kcal/mol | 1.38 ± 0.12 kcal/mol
SASNKPRTIEVPIMIPPDDLKEHSPEEFIDWIANELGLPPGKDIKIDVDIEPFEHDGRPYYIIPARIQVSAG [r14_334_TrROS] | -0.294 ± 0.32 kcal/mol | -0.362 ± 0.2 kcal/mol | -0.231 ± 0.22 kcal/mol
SASPALELAKEIAEKIEPLFPDISPVEVTVTPRGSTALGTIKFKRPDGKELVAKMIVSAGGDPVEIILLSAG [r14_719_JUSTAS] | 1.26 ± 0.25 kcal/mol | 1.56 ± 0.14 kcal/mol | 1.51 ± 0.21 kcal/mol
SASPEDTVTTTETEPTTISLGTASIPPDLEVLSVTVTTTTTTTYKVEPPGVPVKLSSTTTTTTTVTLKRTSA [r9_747_JUSTAS] | 2.45 ± 0.1 kcal/mol | 2.79 ± 0.3 kcal/mol | 2.69 ± 0.38 kcal/mol
SASPELRKLAEEAAERLVKELGVEKLEFTFTAPVLRPVYTYDPGGNKTPRLEEEIVTYSVTAVVPPEAASAG [r14_232_TrMRF] | -0.21 ± 0.31 kcal/mol | -0.0655 ± 0.14 kcal/mol | -0.0957 ± 0.2 kcal/mol
SASPPRRFMIKVTYPDGKTTLSYGDDPEQTRAALEAQIAEEHPGNYTIEYTELSPDEWASPEKAEALLSSAG [r14_900_JUSTAS] | 1.71 ± 0.073 kcal/mol | 2.27 ± 0.034 kcal/mol | 2.01 ± 0.078 kcal/mol
SASPSETTTYTVELTSTDPSLTPEDLAERAREEFEAALPPGTRVEVEVVSVTPIPETGTTRYTIRITVRRSA [r9_706_JUSTAS] | 4.26 ± 0.046 kcal/mol | 5.18 ± 0.1 kcal/mol | 4.55 ± 0.027 kcal/mol
SASVEEVIEEAKELAKKLGAYVIVTVYKNNKKIGTYEYPSPSKNSPPTSITIESPDPNYKVKITIYPPGSAG [r14_728_JUSTAS] | 3.12 ± 0.032 kcal/mol | 2.53 ± 0.062 kcal/mol | 2.94 ± 0.092 kcal/mol
SATETLTVVETRTVRDPAVPGTTTTETRVTEVTRPAPPPPPLSAEELARALAEAGLLERTDDGELKVVLSAG [r14_582_TrROS_Hall] | -0.276 ± 0.11 kcal/mol | -0.559 ± 0.25 kcal/mol | -0.567 ± 0.43 kcal/mol
SATFKPGETVTIDELTIDGATITKVTVTVNADGTITITATIKPAPPPPPPPEVVRNPETGKTYPAGEVKDSA [r9_603_TrROS_Hall] | 0.615 ± 0.087 kcal/mol | 1.87 ± 0.19 kcal/mol | 1.34 ± 0.23 kcal/mol
SATFRLPNGKTISIMAPLPPGEMTPDQVISMARMIVRNIFPPGKKVEVKIEVEQYPNGMVHVKIPIKAESAG [r14_389_TrROS] | 0.312 ± 0.28 kcal/mol | 0.0799 ± 0.31 kcal/mol | 0.406 ± 0.4 kcal/mol
